Laboratory results as given in article PMC4118869 (PLoS ONE, 2014).
Numbering of substitutions follows the chain as printed.

B1: R2a-B9 (VHH)
VHH: QVQLVESGGGLVQPGGSLRLSCAASGSAFSINAMGWYRQAPGEEREFVAAITAGGNTYYADSAKARFTISRDNAKNMLYLQMNSLKPEDTAMYYCAATKAFGIATITADYELWGQGTQVTVSS
notes: source: E. coli WK6 periplasm, purified (Talon IMAC, Superdex 75 SEC)
B2: R1a-E6 (VHH)
VHH: QVQLVESGGGLVQPGGSLRLSCAASGFTLGAYAIAWFRQAPGKEREGVSCISPSDSFTEYGDSVKGRFTVSRDNAKNTVYLQMNSLQPEDTAVYYCAADPVCTAGWYRPSRFDLWGQGTQVTVSS
notes: as for B1
B3: R2a-F9 (VHH)
VHH: QVQLVESGGGLVQPGGSLRLSCSASGSISSIVTMGWYRQAPGKERELVAVIGNYGNTNYADSVKGRFTVSRDNAKNTVYLQMNSLNVEDTAMYVCKFSSTVAPHEYWGQGTQVTVSS
notes: as for B1
B4: R2a-G9 (VHH)
VHH: QVQLVESGGGLVQPGGSLRLSCAASDNIFSFYTMGWYRQSPGKERELVAVIGNGGNTNYADSVKGRFTISRDNGKNKAHLQMNSLKPEDTAVYYCKASGPGGVEVWGQGTQVTVSS
notes: as for B1
B5: R2a-H9 (VHH)
VHH: QVQLVESGGGLVQPGGSLRLSCAASTNIASFYTMGWYRQTPGQQRDVVAVIGNGGNTNYADSVKGRFTISRDGAKNTAHLQMNSLKPEDTDVYYCKASGPGGVILWGQGTQVTVSS
notes: as for B1
B6: R2a-E8 (VHH)
VHH: QLQLVESGGGLVQPGGSLRLSCTASGDIFVMYMIDWYRQAPGKQRELVASIDGRGTPMYADSVKGRFTISRDNAKNTVYLQMNSLKPEDTAVYSCHAKSPLVDNEYWGQGTQVTVSS
notes: as for B1
B7: R1a-G5 (VHH)
VHH: QLQLVESGGGLVQPGGSLRLSCAASGSISRIVTMGWYRQASGKERELVAVIGNYGNTNYADSVKGRFTVSRDNAKDTAYLQMNGLNVEDTAIYYCKTSTTTPPYEYWGQGTQVTVSS
notes: as for B1
B8: R1a-F4 (VHH)
VHH: B7 VHH with L2V, A40G, S41P, G84N, I92M, T97C, Y104H, Y106F
notes: as for B1
B9: R1a-G6 (VHH)
VHH: QVQLVESGGGLVQSGGSLRLSCAASGSMSRIITMGWYRQAPGMERELVAVIGNNDNTVYGDSVQGRFTVSRDNAKNTAYLQMNSLNAEDTAMYYCKISTLTPPHEYWGQGTQVTVSS
notes: as for B1
B10: R1a-E5 (VHH)
VHH: QLQLVESGGGLVQPGGSLRLSCTASGFSLDNYAIGWFRRAPGEEREGVSFITSTSAVTKYADSVKGRFTISRDNAKNTVYLQMTSLKPEDTAVYYCAGTRWVPTMKADEYNYWGQGTQVTVSS
notes: as for B1
B11: R1a-F5 (VHH)
VHH: QLQLVESGGGLVQVGGSLRLSCAASGFPFDGYAIAWFRQAPGKEREGVSCRASDGNTYYAESLKGRLTMSTDNAKNTVYLQMNSLKPEDTAVYYCAAASWVASLWSPSEYDYWGQGTQVTVSS
notes: as for B1
B12: R1a-C5 (VHH)
VHH: QVQLVESGGGLVQPGGSLRLSCAASNDIFSFYTMGWYLQAIGKQREPVAVIGNGGNTNYAESVKGRFTISRDGAKNTAYLQMNSLKPEDTAVYYCMASGPGGLNVWGQGTQVTVSS
notes: as for B1

Each binder was assayed against recombinant H5-HA, A/Vietnam/1203/2004 (H5N1) (Influenza A virus A/Vietnam/1203/2004 …, UniProt Q5EP31, strain) (assay: SPR). Details: both partners purified.
B1: no binding.
B2: no binding.
B3: no binding.
B4: no binding.
B5: no binding.
B6: no binding.
B7: no binding.
B8: no binding.
B9: no binding.
B10: no binding.
B11: no binding.

The binders below were run against recombinant H9-HA, A/HongKong/1073/99 (H9N2) (Influenza A virus A/Hong Kong/1073/99 …, UniProt Q9ICY5, strain) (assay: SPR). Details: both partners purified.
B1: no binding.
B2: no binding.
B3: no binding.
B4: no binding.
B5: no binding.
B6: no binding.
B7: no binding.
B8: no binding.
B9: no binding.
B10: no binding.
B11: no binding.

These binders were tested against T1, recombinant H2-HA, A/Japan/305/57 (H2N2) (Influenza A virus A/Japan/305/1957 …, UniProt P03451, strain) (assay: SPR). Details: both partners purified.
T1 construct: source: bought: E-Enzymes (Protein Sciences in the SPR methods)
B1: no binding.
B2: no binding.
B3: no binding.
B4: no binding.
B5: no binding.
B6: no binding.
B7: no binding.
B8: no binding.
B9: no binding.
B10: no binding.
B11: no binding.

What follows are binders tested against recombinant H1-HA (D18-I530), A/California/06/2009 (H1N1)pdm09 (Influenza A virus A/California/06/2009 …, UniProt C3W5S1, strain) (assay: SPR). Details: both partners purified.
For B1, the Kd was 0.16 nM, the koff was 4.94e-05 s⁻¹ and the kon was 312000 M⁻¹ s⁻¹.
Work on B2 yielded a Kd of 9.97 nM, a koff of 0.000151 s⁻¹ and a kon of 15100 M⁻¹ s⁻¹.
B3 was tested, and the Kd was 78.8 nM, the koff was 0.065 s⁻¹ and the kon was 825000 M⁻¹ s⁻¹.
B4 was tested, and the Kd was 22.1 nM, the koff was 0.00392 s⁻¹ and the kon was 177000 M⁻¹ s⁻¹.
B12 showed a Kd of 37.6 nM, a koff of 0.0206 s⁻¹ and a kon of 548000 M⁻¹ s⁻¹.
Work on B5 yielded a Kd of 2.77 nM, a koff of 0.000384 s⁻¹ and a kon of 139000 M⁻¹ s⁻¹.
B6 was tested, and the Kd was 0.79 nM, the koff was 0.000148 s⁻¹ and the kon was 187000 M⁻¹ s⁻¹.
With B7 the Kd was 5.85 nM, the koff was 0.00504 s⁻¹ and the kon was 862000 M⁻¹ s⁻¹.
In the case of B8, the Kd is reported as 6.46 nM, the koff is reported as 0.0022 s⁻¹ and the kon is reported as 340000 M⁻¹ s⁻¹.
B9 was tested, and the Kd was 4.83 nM, the koff was 0.000355 s⁻¹ and the kon was 73800 M⁻¹ s⁻¹.
B10 gave a Kd of 0.79 nM, a koff of 7.61e-05 s⁻¹ and a kon of 97600 M⁻¹ s⁻¹.
B11 showed a Kd of 10 nM, a koff of 0.000414 s⁻¹ and a kon of 40200 M⁻¹ s⁻¹.

What follows are binders tested against phage displayed HA gene fragment P66-I282 (Influenza A virus A/California/07/2009 …, UniProt C3W5X2) (assay: ELISA). Details: both partners purified.
B1: no binding.
B2: binds.
B3: binds.
B4: binds.
B12: binds.
B5: binds.
B6: no binding.
B7: binds.
B8: binds.
B9: binds.
B10: no binding.
B11: binds.

These binders were tested against phage displayed HA gene fragment L193-K225 (Influenza A virus A/California/07/2009 …, UniProt C3W5X2) (assay: ELISA). Details: both partners purified.
B1: no binding.
B2: no binding.
B3: no binding.
B4: no binding.
B12: binds.
B5: no binding.
B6: no binding.
B7: no binding.
B8: no binding.
B9: no binding.
B10: no binding.
B11: no binding.

These binders were tested against phage displayed HA gene fragment D363-G478 (Influenza A virus A/California/07/2009 …, UniProt C3W5X2) (assay: ELISA). Details: both partners purified.
B1: no binding.
B2: no binding.
B3: no binding.
B6: no binding.
B7: no binding.
B8: no binding.
B9: no binding.
B10: no binding.
B11: no binding.

Each binder was assayed against hemagglutinin of A/California/07/2009 (H1N1)pdm09, in the influenza virus antigen standard (Influenza A virus A/California/07/2009 …, UniProt C3W5X2, strain) (assay: ELISA). Details: one partner purified.
B1: binds.
B2: binds.
B3: binds.
B4: binds.
B12: binds.
B5: binds.
B6: binds.
B7: binds.
B8: binds.
B9: binds.
B10: binds.
B11: binds.

The binders below were run against hemagglutinin of A/Brisbane/10/2007 (H3N2), in the influenza virus antigen standard (Influenza A virus A/Brisbane/10/2007 …, UniProt A8W8K8, strain) (assay: ELISA). Details: one partner purified.
B1: no binding.
B2: no binding.
B3: no binding.
B4: no binding.
B12: no binding.
B5: no binding.
B6: no binding.
B7: no binding.
B8: no binding.
B9: no binding.
B10: no binding.
B11: no binding.

These binders were tested against recombinant HA1 domain (D18-R344), A/California/06/2009 (H1N1)pdm09 (Influenza A virus A/California/06/2009 …, UniProt C3W5S1, strain) (assay: SPR). Details: both partners purified.
Binder B2 has a Kd of 36 nM.
In the case of B3, the Kd is reported as 78.8 nM.
In the case of B4, the Kd is reported as 68.7 nM.
In the case of B12, the Kd is reported as 38.4 nM.
B5 showed a Kd of 468 nM.
B7 was tested, and the Kd was 15.6 nM.
B8 was tested, and the Kd was 4.74 nM.
Binder B9 has a Kd of 4.62 nM.
Binder B11 has a Kd of 6.06 nM.

These binders were tested against T2, recombinant H3-HA, A/Brisbane/10/2007 (H3N2) (Influenza A virus A/Brisbane/10/2007 …, UniProt A8W8K8, strain) (assay: SPR; data not shown: sdAbs on immobilised recombinant H3-HA and H7-HA). Details: both partners purified.
T2 construct: source: bought: Protein Sciences
B1: no binding.
B2: no binding.
B3: no binding.
B4: no binding.
B12: no binding.
B5: no binding.
B6: no binding.
B7: no binding.
B8: no binding.
B9: no binding.
B10: no binding.
B11: no binding.

These binders were tested against T3, recombinant H7-HA, A/Netherlands/219/2003 (H7N7) (Influenza A virus …, UniProt Q6VMK1) in the same assay as above. Details: both partners purified.
T3 construct: source: bought: Protein Sciences
B1: no binding.
B2: no binding.
B3: no binding.
B4: no binding.
B12: no binding.
B5: no binding.
B6: no binding.
B7: no binding.
B8: no binding.
B9: no binding.
B10: no binding.
B11: no binding.
